Each block holds one substance with its values, some of them ahead of it.
Legend:
[1] = target: CD200 (Mus musculus) (UniProt O54901); settings: cited from earlier work
[2] = target: CD200 (Rattus norvegicus) (UniProt P04218); settings: cited from earlier work
[3] = target: CD200 (Homo sapiens) (UniProt P41217); settings: cited from earlier work
[4] = target: rabbit CD200 rCD4d3+4 chimeric protein, biotinylated (rabbit (Oryctolagus cuniculus)); test: SPR; BIAcore 3000, 37 °C, 10 mM HEPES pH 7.5, 150 mM NaCl, 3 mM EDTA, 0.02% P20; biotinylated rCD4d3+4 chimeras from concentrated tissue culture supernatants immobilised on streptavidin coated CM5 chip; purified monomeric soluble protein passed over in increasing concentrations; equilibrium binding, Langmuir isotherm
[5] = target: rabbit CD200R rCD4d3+4 chimeric protein, biotinylated (rabbit (Oryctolagus cuniculus)); test: as above
rabbit CD200R rCD4d3+4 chimeric protein, biotinylated (rabbit (Oryctolagus cuniculus)), sequence (main, as listed by the source mutant): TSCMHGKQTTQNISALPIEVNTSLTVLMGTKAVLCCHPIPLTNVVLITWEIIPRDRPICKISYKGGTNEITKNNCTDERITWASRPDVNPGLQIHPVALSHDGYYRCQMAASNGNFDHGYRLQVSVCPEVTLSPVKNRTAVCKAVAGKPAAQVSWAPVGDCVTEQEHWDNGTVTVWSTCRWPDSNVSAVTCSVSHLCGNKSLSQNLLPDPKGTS

[6] = target: rat CD200R rCD4d3+4 chimeric protein, biotinylated (rat) (UniProt Q9ES58); test: as above

UniProt O54901, sequence (O54901 31-232): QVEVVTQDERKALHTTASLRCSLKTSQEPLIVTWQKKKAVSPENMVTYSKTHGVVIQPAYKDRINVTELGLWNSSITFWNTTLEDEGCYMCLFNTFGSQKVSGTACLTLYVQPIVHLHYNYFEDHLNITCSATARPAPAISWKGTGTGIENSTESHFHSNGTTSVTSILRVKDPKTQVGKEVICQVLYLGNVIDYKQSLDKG
UniProt P41217, sequence (P41217 31-232): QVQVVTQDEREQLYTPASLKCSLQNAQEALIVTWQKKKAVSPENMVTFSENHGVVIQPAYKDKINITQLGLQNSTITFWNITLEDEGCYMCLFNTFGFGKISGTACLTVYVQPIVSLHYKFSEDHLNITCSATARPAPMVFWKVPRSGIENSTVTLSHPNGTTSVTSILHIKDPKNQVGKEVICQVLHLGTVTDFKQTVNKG
UniProt P04218, sequence (P04218 31-232): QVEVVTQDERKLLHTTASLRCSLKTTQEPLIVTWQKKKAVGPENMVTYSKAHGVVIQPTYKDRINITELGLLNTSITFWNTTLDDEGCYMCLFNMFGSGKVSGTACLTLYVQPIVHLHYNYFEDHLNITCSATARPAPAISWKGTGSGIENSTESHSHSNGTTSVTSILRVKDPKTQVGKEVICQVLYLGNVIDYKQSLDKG

Substance: CD200R (from UniProt Q9ES57)
- Kd [1]: 4 µM

Substance: CD200R (from UniProt Q9ES58)
- Kd [2]: 1.5 µM

Substance: CD200R (from UniProt Q8TD46)
- Kd [3]: 0.5 µM

- Kd [4]: 3.3 to 3.4 µM
Substance: soluble recombinant rabbit CD200R (extracellular region, His tag) (from UniProt A0A0S4XR64 1-238) (receptor)

- Kd [5]: 3.3 to 3.4 µM
- Kd [6]: 5.1 µM
Substance: soluble recombinant rabbit CD200 (extracellular region, His tag) (from UniProt A0A0S4XRM6 1-233) (ligand)

— article PMC4750549
